Measured values from the domain aggregation screens of Martell et al. (2025).

Assay: soluble fraction after stress (log2 fold change); higher = more stays soluble; pooled small domains, quantitative proteomics
Details: stress: 50 degC
Summary of the method: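 The measure of aggregation propensity here is the base-two logarithm of the fold change in the soluble amount of each protein after stress. A higher value means more of that protein stays in solution. Stress was applied at 50°C to pooled libraries of small protein domains, read out by high-throughput quantitative proteomics.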

| Sequence | soluble fraction (log2) |
| --- | --- |
| HMYIDNVTIYDVGFNERIVHALERAGVKNLYDLSQMNFYQLQRIRNLGASSLEKVINRIHSYGILLKNES | -1.2 |
| HMYIEKTAYINDTAVNVRKSATTDSDVIKVLALNTEITIIGEENDWYKVKSGNDIGYIAKRLVSDQKKE | 0.0858 |
| HMYIKYETVLQNITERIAALRKNGTLVLDGERTLAAEFDASRGTIRKAMRQLEENGTILREGYVTRILPE | -1.61 |
| HMYIVVPDLSKKDINEVANILAAQSLRFQVIDSANFRSDFPKNAVISQKPLAGSEVKVNKKIYLQLNPS | -0.345 |
| HMYLEARVKSTTPILSKPNELGKSLGKLYTNDFVALVSLHKNGLDSYYRTANGGYINAADVVIDRDV | -0.663 |
| HMYLPLREVVFNALRTAIIHGEFKPGERLMEMHLAKSLGVSRTPVREAMRMLELEGLVVMIPKKGAEVAR | -3.13 |
| HMYMKMNDRIRSRRKELKMTQSVLAKLVGVNRVTITGWESGDYKPGGENLQALAAALEKTPQWLLDGKD | -0.996 |
| HMYMTTADADMWKYVNTGRYNNDIQLMEEYKNRSMDSFEVITPEQQRKYNKAAMNLNSYYAWADPSYKPNP | -0.257 |
| HMYMWQVEDLLRANELDIENIKKTIIDHYQLDDAQKSELTRWYEDLINMMRLEGVTKEGHLQINK | -1.41 |
| HMYNSYALTARELELVNYVLKGNSRREMAEDSGLKENTVASYMKRLYRKIKVHSRKELKELFM | -0.0805 |
| HMYPDNEQTLSKLAFEFFKKRNIPISQSNINQIVTKSLGDRENLYNELLKIENFSTSGKKLTDNVIKKLIN | 0.00831 |
| HMYPFSEETLKEKIREYLKTNRSINRRVLEREFYIRKQTALNWLNRLVDSGFLIKEGVRNSPVYFLAE | -0.691 |
| HMYPMQNYSTIIGVIELRQQSVGYATTQKRYGIGSSTVTLIMKRFKELGLTLEELRAMPPKAVEVAFYPPE | -1.11 |
| HMYPNEFPRKVMSVFESSGLEMFRTIEMLLAIPEYETPLPYGSGVSRSDIFVLAKSAGNLVSITV | 0.00886 |
| HMYQFFVDPGQIQGKRVTITGSDVNHIKNVLRMRIGEEIAVSNGKDGLEYRFGIDEILEDEVIGTLRFVKE | -0.968 |
| HMYRIGELAKLADVTPDTIRYYEKQQMMDHDVRTEGGFRLYSDNDLQRLKFIRYARQLGFTLEAIRELLSI | -1.81 |
| HMYRWSEEIFEKLRSDIMAALDLSREQNDEEIYRFIETEVEEYSQNNLLTLKEREQLEHLLFNSL | -1.3 |
| HMYSKVSFTVSVGMTSERVSASLKALGIIDDSAKFNRYLVSNGYSTRIKVGTVELQAGQSYAEIASKLV | -0.826 |
| HMYSLSELERIKNFLTGYMSDYSIMMLDANEITNQVDISLKDYSDDNIESIKAAVLSHGGKTDYLNFIDDS | -0.589 |
| HMYSQEEKRYMEIMEIKPQELSAENLKKQYKKLVKKYHPDLHQDDKQAAEEKFKQLTNAYQVLMRRF | 0.0779 |
| HMYSSASKEEIDQLMKRLILNLDAKGYFWPQDKEKSLKLYLHNLFSKLPLNSSDIRFLHGLIRALSEE | -1.08 |
| HMYSSIIGIAFTRAENKPAAPTGGSYSNPHPVDGNWKAAPYDGDGNLWYSIRHFNENVDIQDREWSDPTLG | -0.24 |
| HMYSYSGSVINTYKVPVSVVLKDANGSAIASWDLPVDQSLGISAKDIATSSGTIEITGDGVNETKTVTFTK | -0.0188 |
| HMYTGSEGMAGLEGRAVTEVGPEAGTVLVKGEYWQARSDEPIATDRKIRVIRLEGLRLRVAEIHPEG | -0.0371 |
| HMYTPDYLSDLMVRMAHHSTAIEGNTLTQGETKSVLVDGYIPRAMDMRELNEVLNYKAFMTFLVE | -0.0969 |
| HMYTTHTQSELNEAARFNGRATYQKGIYYNESKKEHFKVVNGKYQALPNVKQVNGDSWIDKTGITHKG | -0.171 |
| HMYTVQQLARLAGITPRTLRHYDAIGLLKPTRVGENGYRYYGSEALLRLQSILLYRELDMPLEDIRRVLDS | -3.15 |
| HMYVPEVPVPDLLGRSEEEAKNLIEDLGLVFKVSKREYSKEYDEGHVMEQSVDEGAKVKENYPVEVVISR | 0.196 |
| HMYYDDEELDDYRGKASDAYTAAEVEQFEEVLTTMRPEEVHGWLRSLQLRGVALPDALKDEAYMIVSEQAE | -0.252 |
| HMYYIITNGKYWVIENPIRPGEYMESTKSSNAKQFTFKQAKNLLNARSKKLGWIRNGYSMVGED | -2.22 |
